The target of assay [1] is T1, human CD70 (human, UniProt P32970 1-193).
T1 construct: whole, on cells; Stated as human for the CHO transfectants; also called cell surface CD70s
T1 sequence (looked up): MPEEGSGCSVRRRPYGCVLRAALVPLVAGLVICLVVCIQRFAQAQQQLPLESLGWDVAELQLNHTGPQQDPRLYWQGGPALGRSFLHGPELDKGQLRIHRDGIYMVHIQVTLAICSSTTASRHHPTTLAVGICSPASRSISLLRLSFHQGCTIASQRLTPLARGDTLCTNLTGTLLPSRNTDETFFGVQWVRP
The assay can be described thus: flow cytometry on CD47+CD70+ Raji cells.

The target of assay [2] is T1, human CD70. The assay can be described thus: flow cytometry on CHO cells expressing human CD70. On the procedure: (§1) Cells were washed with 1% BSA-PBS once, and then incubated with 100 μl 1:500 diluted FITC-conjugated secondary antibody against human IgG-Fc (Cat #F9512, Sigma) at 4° C. for 45 min. Cells were washed once with 1% BSA-PBS, re-suspended in 200 μl 1% BSA-PBS, and then subject to FACS analysis using a flow cytometer (Merck Millipore, Guava® easyCyte 5HT).
(In flow cytometry, cells or beads pass a laser one at a time.)

Assay [3] addresses T1, human CD70. The assay can be described thus: flow cytometry on CD70+ CHO cells. On the procedure:
as §1

B1: Cusatuzumab (antibody, human IgG1, lambda, V domains shown)
VH: EVQLVESGGGLVQPGGSLRLSCAASGFTFSVYYMNWVRQAPGKGLEWVSDINNEGGTTYYADSVKGRFTISRDNSKNSLYLQMNSLRAEDTAVYYCARDAGYSNHVPIFDSWGQGTLVTVSS
VL: QAVVTQEPSLTVSPGGTVTLTCGLKSGSVTSDNFPTWYQQTPGQAPRLLIYNTNTRHSGVPDRFSGSILGNKAALTITGAQADDEAEYFCALFISNPSVEFGGGTQLTVLG
notes: Anti-CD70 IgG used as comparator
With B1, the binding result with human CD70 [1] is “binds”.

B2: IMM40C (antibody, human IgG1, kappa, V domains shown)
VH: QVQLQQSGPEVVRPGVSVKISCKGSGYTFTDSALHWVKQSHAKSLEWIGVISTYDGDTDYNQKFKGKATMTVDKSSSTAYMELARLTSEDSAIYYCARRGYYDYDWFPYWGQGTLVTVSA
VL: DIVLTQSPASLAISLGQRATISCRASKSVSASGYSFLHWYQQKPGQPPKLLIYLASNLESGVPARFSGSGSGTDFTLNIHPVEEEDAATFYCQHSRELPPTFGGGTKLEIKR
notes: Chimeric IgG: mouse variable regions with human IgG1 and human kappa constant regions; expressed in CHO-S cells
In the case of B2, the binding result with human CD70 [2] is recorded as “binds”.

B3: IMM40H (antibody, human IgG1, kappa, V domains shown)
VH: QVQLVQSGAEVKKPGASVKVSCKVSGYTFTDSALHWVRQAPGKGLEWMGVISTYDGDTDYNQKFKGRVTMTEDTSTDTAYMELSSLRSEDTAVYYCARRGYYDYDWFPYWGQGTLVTVSA
VL: DIVLTQSPASLAVSPGQRATITCRASKSVSASGYSFLHWYQQKPGQPPKLLIYLASNLESGVPARFSGSGSGTDFTLTINPVEANDTANYYCQHSRELPPTFGGGTKVEIKR
notes: Humanized IgG1/kappa; X=N for IMM40H; N85 is a glycosylation site in the light chain variable region; also called IMM4OH
For the molecule B3, the binding result with human CD70 [3] is recorded as “binds”.

B4: IMM40M (antibody, human IgG1, kappa, V domains shown)
VH: QVQLVQSGAEVKKPGASVKVSCKVSGYTFTDSALHWVRQAPGKGLEWMGVISTYDGDTDYNQKFKGRVTMTEDTSTDTAYMELSSLRSEDTAVYYCARRGYYDYDWFPYWGQGTLVTVSA
VL: DIVLTQSPASLAVSPGQRATITCRASKSVSASGYSFLHWYQQKPGQPPKLLIYLASNLESGVPARFSGSGSGTDFTLTINPVEAEDTANYYCQHSRELPPTFGGGTKVEIKR
notes: IMM40H with N85E in the light chain variable region, which removes a glycosylation site; also called IMM4OM
As to B4, the binding result with human CD70 [3] is “binds”.

For the origin of these results see US20230112123A1 (IMMUNEONCO BIOPHARMACEUTICALS SHANGHAI, published 2023).
